Test results from paper PMC6213480, “A Novel Cold-Adapted Leucine Dehydrogenase from Antarctic Sea-Ice Bacterium Pseudoalteromonas sp. ANT178” (Marine Drugs, 2018).

Tests used:
Assay in all cases: purified protein
Format in all cases: biochemical, Pseudoalteromonas sp. ANT178
Conditions in all cases: oxidative deamination with NAD+, standard assay 0.1 M glycine-NaOH pH 10.4, 1 mM NAD+, 30 °C
[1] = system: CSCCC(N)C(=O)O
[2] = system: N=C(N)NCCC[C@H](N)C(=O)O
[3] = system: CC(C)C[C@H](N)C(=O)O
[4] = system: N[C@@H](Cc1ccc(O)cc1)C(=O)O

rPsLeuDH (Pseudoalteromonas sp.)
Km [1]: 750 µM
Vmax [1]: 8.38 µmol/min/mg
kcat [1]: 16.6 s⁻¹
kcat/Km [1]: 22100 M⁻¹ s⁻¹
Km [2]: 840 µM
Vmax [2]: 7.13 µmol/min/mg
kcat [2]: 14.1 s⁻¹
kcat/Km [2]: 16800 M⁻¹ s⁻¹
Km [3]: 330 µM
Vmax [3]: 15.2 µmol/min/mg
kcat [3]: 30.1 s⁻¹
kcat/Km [3]: 91300 M⁻¹ s⁻¹
Km [4]: 480 µM
Vmax [4]: 13.3 µmol/min/mg
kcat [4]: 26.4 s⁻¹
kcat/Km [4]: 55000 M⁻¹ s⁻¹
